Reference: US20220281980A1 (Bristol-Myers Squibb, published 2022)

Experiments:
[1] = biological target: T1, human MICB expressed on transduced cells (human, UniProt Q29980 23-382); test: cell-based or functional assay
T1 chain: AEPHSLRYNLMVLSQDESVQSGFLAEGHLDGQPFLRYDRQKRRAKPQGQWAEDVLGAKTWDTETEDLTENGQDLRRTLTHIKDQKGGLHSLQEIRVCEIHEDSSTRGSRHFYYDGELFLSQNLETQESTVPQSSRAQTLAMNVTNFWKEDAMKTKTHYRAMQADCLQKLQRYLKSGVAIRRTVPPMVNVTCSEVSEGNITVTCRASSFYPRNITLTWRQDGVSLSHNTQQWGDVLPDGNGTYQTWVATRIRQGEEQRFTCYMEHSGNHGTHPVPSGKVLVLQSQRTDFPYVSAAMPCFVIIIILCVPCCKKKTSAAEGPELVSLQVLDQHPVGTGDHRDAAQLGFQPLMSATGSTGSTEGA

[2] = biological target: T2, human MICA/B endogenously expressed on HeLa cells (MICA allele *008) (human, UniProt Q29983 24-331); test: cell-based or functional assay
T2 chain: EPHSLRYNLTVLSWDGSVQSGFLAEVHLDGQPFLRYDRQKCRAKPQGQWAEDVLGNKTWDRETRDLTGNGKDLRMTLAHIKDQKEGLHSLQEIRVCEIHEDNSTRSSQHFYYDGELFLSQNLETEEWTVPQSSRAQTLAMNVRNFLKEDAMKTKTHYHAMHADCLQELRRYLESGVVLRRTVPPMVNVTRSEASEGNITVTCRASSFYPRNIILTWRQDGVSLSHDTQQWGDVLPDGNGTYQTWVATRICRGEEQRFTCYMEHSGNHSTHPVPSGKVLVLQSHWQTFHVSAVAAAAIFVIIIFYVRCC

[3] = biological target: T3, human MICA/B endogenously expressed on 786-O cells (MICA allele *008) (human, UniProt Q29983 24-331); test: cell-based or functional assay
T3 chain: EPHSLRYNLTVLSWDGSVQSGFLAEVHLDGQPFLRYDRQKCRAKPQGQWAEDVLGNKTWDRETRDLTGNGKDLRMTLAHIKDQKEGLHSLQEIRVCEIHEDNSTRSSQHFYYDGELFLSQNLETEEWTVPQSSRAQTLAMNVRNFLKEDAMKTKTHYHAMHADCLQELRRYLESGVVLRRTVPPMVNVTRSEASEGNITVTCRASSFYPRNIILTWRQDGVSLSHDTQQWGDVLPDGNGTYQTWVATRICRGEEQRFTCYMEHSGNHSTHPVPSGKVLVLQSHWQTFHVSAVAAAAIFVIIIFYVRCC

[4] = biological target: T2, human MICA/B endogenously expressed on …; test: flow cytometry, tumor cells with endogenous MICA/B (column Binding EC50)
[5] = biological target: T3, human MICA/B endogenously expressed on …; test: as above
[6] = biological target: T4, human MICA/B endogenously expressed on RPMI-8226 cells (human, UniProt Q29983 24-383); test: flow cytometry, tumor cells with endogenous MICA/B
T4 construct: whole, on cells
T4 sequence (looked up): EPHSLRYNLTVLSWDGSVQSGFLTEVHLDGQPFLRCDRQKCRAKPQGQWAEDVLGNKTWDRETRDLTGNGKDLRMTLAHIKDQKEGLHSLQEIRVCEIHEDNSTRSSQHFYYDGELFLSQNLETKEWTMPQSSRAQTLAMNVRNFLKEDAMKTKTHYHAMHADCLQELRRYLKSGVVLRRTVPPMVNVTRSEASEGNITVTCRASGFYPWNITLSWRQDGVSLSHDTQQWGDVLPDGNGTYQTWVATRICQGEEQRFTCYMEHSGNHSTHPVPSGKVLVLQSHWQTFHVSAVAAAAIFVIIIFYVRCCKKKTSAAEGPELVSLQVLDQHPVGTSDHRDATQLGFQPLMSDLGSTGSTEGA
Description: Serial dilutions of MICA.36-IgG1-NF-G236A mAb were incubated with CHO cells transduced with human MICA/B common alleles or human tumor cell lines that endogenously express MICA/B. Cells were then washed twice, and cell bound antibodies were detected using a secondary anti-human antibody conjugated with a fluorophore. Flow cytometric analyses were performed using a FACSCantoII or FACS Fortessa X-20 flow cytometer. The geometric mean fluorescence intensity of MICA.36-IgG1-NF-G236A mAb bound to cells was determined using FlowJo analysis software. Dose-response curves were generated and EC50s calculated using Prism software.
MICA.36-IgG1-NF-G236A bound to endogenously expressed MICA/B on a variety of human tumor cell lines (FIG. 8B).

OT-I CD8+ T cell proliferation (antigen cross-presentation) EC50 [1]: 1.6 nM
antibody dependent cellular phagocytosis (ADCP) EC50 [1]: 10.7 nM
Fold increase in surface MICA [2]: 1.43 fold
MICA retention EC50 [2]: 0.032 nM
Reduction in sMICA EC50 [2]: 0.1 nM
Fold increase in surface MICA [3]: 1.47 fold
MICA retention EC50 [3]: 0.057 nM
Reduction in sMICA EC50 [3]: 0.14 nM
EC50 [4]: 1.76 nM
EC50 [5]: 1.37 nM
EC50 [6]: 3.9 nM
B1: MICA.36-IgG1-NF-G236A (antibody)
heavy: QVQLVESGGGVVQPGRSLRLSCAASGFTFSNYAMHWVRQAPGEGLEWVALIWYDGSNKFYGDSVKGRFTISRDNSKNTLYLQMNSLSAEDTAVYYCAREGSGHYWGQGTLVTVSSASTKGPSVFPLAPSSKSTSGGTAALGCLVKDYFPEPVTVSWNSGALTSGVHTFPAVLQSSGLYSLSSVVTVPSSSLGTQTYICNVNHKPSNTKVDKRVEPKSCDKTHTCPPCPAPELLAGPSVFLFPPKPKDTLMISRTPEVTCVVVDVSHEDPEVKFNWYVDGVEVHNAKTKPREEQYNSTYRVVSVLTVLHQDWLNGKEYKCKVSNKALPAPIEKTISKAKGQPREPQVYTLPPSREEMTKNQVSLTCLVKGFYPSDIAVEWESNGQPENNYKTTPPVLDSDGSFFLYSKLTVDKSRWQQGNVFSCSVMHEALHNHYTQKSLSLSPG
light: AIQLTQSPSSLSASVGDRVTITCRASQGISSALAWYQQKPGKVPKSLIYDASSLESGVPSRFSGSGSGTDFTLTISSLQPEDFATYYCQQFNSYPITFGQGTRLEIKRTVAAPSVFIFPPSDEQLKSGTASVVCLLNNFYPREAKVQWKVDNALQSGNSQESVTEQDSKDSTYSLSSTLTLSKADYEKHKVYACEVTHQGLSSPVTKSFNRGEC
modifications: non-fucosylated (expressed in FUT8-knock-out CHO cells)
notes: Human IgG1 with G236A (EU numbering); also called MICA.36 NF G236A; MICA.36-NF-G236A
